In patent US20230132049A1 (Genmab, published 2023):
Where two headings read alike, the source gives them in different places.

T1: human CD30 (human, UniProt P28908 19-595)
T1 sequence: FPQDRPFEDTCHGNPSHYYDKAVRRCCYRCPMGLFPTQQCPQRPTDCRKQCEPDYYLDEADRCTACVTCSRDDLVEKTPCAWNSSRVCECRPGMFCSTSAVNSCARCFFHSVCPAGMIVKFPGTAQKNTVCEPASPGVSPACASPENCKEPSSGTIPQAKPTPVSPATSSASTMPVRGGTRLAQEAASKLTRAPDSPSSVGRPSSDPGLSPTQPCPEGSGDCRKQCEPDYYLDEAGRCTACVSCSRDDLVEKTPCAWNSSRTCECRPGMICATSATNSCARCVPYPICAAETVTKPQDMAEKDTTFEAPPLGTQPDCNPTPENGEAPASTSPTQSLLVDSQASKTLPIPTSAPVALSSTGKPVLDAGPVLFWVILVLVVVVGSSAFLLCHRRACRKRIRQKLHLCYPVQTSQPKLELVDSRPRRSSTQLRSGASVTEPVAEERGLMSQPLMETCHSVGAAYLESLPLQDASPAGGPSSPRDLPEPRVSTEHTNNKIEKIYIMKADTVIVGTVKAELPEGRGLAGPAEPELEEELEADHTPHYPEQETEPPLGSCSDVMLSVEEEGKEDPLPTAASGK

T2: rhesus monkey (Macaca mulatta) CD30 (rhesus monkey, UniProt P28908 19-595 (human entry))
T2 construct: Full-length construct expressed in Expi293F cells; also called mmCD30
T2 chain: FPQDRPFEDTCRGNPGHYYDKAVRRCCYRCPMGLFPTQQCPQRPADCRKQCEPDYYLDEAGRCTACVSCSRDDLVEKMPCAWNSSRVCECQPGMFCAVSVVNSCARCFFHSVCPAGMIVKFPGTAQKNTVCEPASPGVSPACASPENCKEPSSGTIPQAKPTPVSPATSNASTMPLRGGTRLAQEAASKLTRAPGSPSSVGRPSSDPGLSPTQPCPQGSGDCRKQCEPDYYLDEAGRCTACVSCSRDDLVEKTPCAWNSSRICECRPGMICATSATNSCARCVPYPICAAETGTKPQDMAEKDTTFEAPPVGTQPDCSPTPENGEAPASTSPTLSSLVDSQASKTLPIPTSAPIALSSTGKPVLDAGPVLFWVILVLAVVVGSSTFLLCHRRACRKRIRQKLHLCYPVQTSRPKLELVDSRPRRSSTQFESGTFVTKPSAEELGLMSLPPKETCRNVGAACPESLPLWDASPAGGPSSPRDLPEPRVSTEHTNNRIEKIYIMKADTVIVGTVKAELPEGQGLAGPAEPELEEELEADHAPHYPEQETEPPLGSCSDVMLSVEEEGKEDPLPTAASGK

B1: bsG1-huCD3-FEAL×CD30-T215-FEAR (bispecific antibody, human IgG1, kappa, lambda)
heavy 1: not shown
light 1: not shown
heavy 2: not shown
light 2: DIVMTQSQKFMSTSVGDRVSVTCKASQNVFTNVAWYQQKLGQSPKPLIYSASYRYSGVPDRFTGSGSGTDFTLTISDVQSEDLAEYFCQQYNSYPVTFGAGTKLELKRTVAAPSVFIFPPSDEQLKSGTASVVCLLNNFYPREAKVQWKVDNALQSGNSQESVTEQDSKDSTYSLSSTLTLSKADYEKHKVYACEVTHQGLSSPVTKSFNRGEC
notes: Bispecific IgG1 by Fab-arm exchange of the two parental antibodies; also called bsIgG1-huCD3-FEAL×CD30-T215-FEAR
B2: bsG1-huCD3-FEAL×CD30-MDX060-FEAR (bispecific antibody, human IgG1, kappa, lambda)
heavy 1: not shown
light 1: not shown
heavy 2: QVQLQQWGAGLLKPSETLSLTCAVYGGSFSAYYWSWIRQPPGKGLEWIGDINHGGGTNYNPSLKSRVTISVDTSKNQFSLKLNSVTAADTAVYYCASLTAYWGQGSLVTVSSASTKGPSVFPLAPSSKSTSGGTAALGCLVKDYFPEPVTVSWNSGALTSGVHTFPAVLQSSGLYSLSSVVTVPSSSLGTQTYICNVNHKPSNTKVDKRVEPKSCDKTHTCPPCPAPEFEGGPSVFLFPPKPKDTLMISRTPEVTCVVVAVSHEDPEVKFNWYVDGVEVHNAKTKPREEQYNSTYRVVSVLTVLHQDWLNGKEYKCKVSNKALPAPIEKTISKAKGQPREPQVYTLPPSREEMTKNQVSLTCLVKGFYPSDIAVEWESNGQPENNYKTTPPVLDSDGSFFLYSRLTVDKSRWQQGNVFSCSVMHEALHNHYTQKSLSLSPG
light 2: DIQMTQSPTSLSASVGDRVTITCRASQGISSWLTWYQQKPEKAPKSLIYAASSLQSGVPSRFSGSGSGTDFTLTISSLQPEDFATYYCQQYDSYPITFGQGTRLEIKRTVAAPSVFIFPPSDEQLKSGTASVVCLLNNFYPREAKVQWKVDNALQSGNSQESVTEQDSKDSTYSLSSTLTLSKADYEKHKVYACEVTHQGLSSPVTKSFNRGEC
notes: also called bsG1-huCD3xCD30-MDX060
B3: bsG1-huCD3-FEAL×CD30-T408-FEAR (bispecific antibody, human IgG1, kappa, lambda)
heavy 1: not shown
light 1: not shown
heavy 2: QVQLQQPGAELVRPGASVKLSCKASGYTFTSYWINWVKQRPGQGLEWIGNIYPSDSYSNYNQKFKDKATLTVDKSSSTAYMQLSSPTSEDSAVYYCTLGSYWGQGTLVTVSAASTKGPSVFPLAPSSKSTSGGTAALGCLVKDYFPEPVTVSWNSGALTSGVHTFPAVLQSSGLYSLSSVVTVPSSSLGTQTYICNVNHKPSNTKVDKRVEPKSCDKTHTCPPCPAPEFEGGPSVFLFPPKPKDTLMISRTPEVTCVVVAVSHEDPEVKFNWYVDGVEVHNAKTKPREEQYNSTYRVVSVLTVLHQDWLNGKEYKCKVSNKALPAPIEKTISKAKGQPREPQVYTLPPSREEMTKNQVSLTCLVKGFYPSDIAVEWESNGQPENNYKTTPPVLDSDGSFFLYSRLTVDKSRWQQGNVFSCSVMHEALHNHYTQKSLSLSPG
light 2: DVVMTQTPLTLSVTIGQPASISCKSSQSLSDSDGKTYLNWLLQRPGQSPKRLIYLVSKLDSGVPDRFTGSGSGTDFTLKISRVEAEDLGVYYCWQGAHFPRTFGGGTKLEIKRTVAAPSVFIFPPSDEQLKSGTASVVCLLNNFYPREAKVQWKVDNALQSGNSQESVTEQDSKDSTYSLSSTLTLSKADYEKHKVYACEVTHQGLSSPVTKSFNRGEC
notes: Bispecific IgG1 by Fab-arm exchange of the two parental antibodies; also called bsIgG1-huCD3-FEAL×CD30-T408-FEAR; BisIgG1-huCD3-FEAL×CD30-T408-FEAR
B4: bsG1-huCD3-FEAL×CD30-hAC10-FEAR (bispecific antibody, human IgG1, kappa, lambda)
heavy 1: not shown
light 1: not shown
heavy 2: QVQLVQSGAEVKKPGASVKVSCKASGYTFTDYYITWVRQAPGQGLEWMGWIYPGSGNTKYNEKFKGRVTMTRDTSISTAYMELSRLRSDDTAVYYCANYGNYWFAYWGQGTLVTVSSASTKGPSVFPLAPSSKSTSGGTAALGCLVKDYFPEPVTVSWNSGALTSGVHTFPAVLQSSGLYSLSSVVTVPSSSLGTQTYICNVNHKPSNTKVDKRVEPKSCDKTHTCPPCPAPEFEGGPSVFLFPPKPKDTLMISRTPEVTCVVVAVSHEDPEVKFNWYVDGVEVHNAKTKPREEQYNSTYRVVSVLTVLHQDWLNGKEYKCKVSNKALPAPIEKTISKAKGQPREPQVYTLPPSREEMTKNQVSLTCLVKGFYPSDIAVEWESNGQPENNYKTTPPVLDSDGSFFLYSRLTVDKSRWQQGNVFSCSVMHEALHNHYTQKSLSLSPG
light 2: not shown
notes: Bispecific IgG1 by Fab-arm exchange of the two parental antibodies
B5: IgG1-CD30-T215-FEAR (antibody, V domains shown)
VH: QVTLKESGPGILQPSQTLSLTCSFSGFSLSVSGMGVSWIRQPSGKGLEWLAHIHWDDDRRSNPSLRSRLTISKDTSNNQVFLKITSVDTADTATYYCARRPDLYGNYFFFDFWGQGTTLTVSS
VL: DIVMTQSQKFMSTSVGDRVSVTCKASQNVFTNVAWYQQKLGQSPKPLIYSASYRYSGVPDRFTGSGSGTDFTLTISDVQSEDLAEYFCQQYNSYPVTFGAGTKLELKR
notes: Monospecific, bivalent parental antibody
B6: bsG1-huCD3-FEAL×CD30-HRS-3-FEAR (bispecific antibody, human IgG1, kappa, lambda)
heavy 1: not shown
light 1: not shown
heavy 2: QVQLQQSGAELARPGASVKMSCKASGYTFTTYTIHWVRQRPGHDLEWIGYINPSSGYSDYNQNFKGKTTLTADKSSNTAYMQLNSLTSEDSAVYYCARRADYGNYEYTWFAYWGQGTTVTVSSASTKGPSVFPLAPSSKSTSGGTAALGCLVKDYFPEPVTVSWNSGALTSGVHTFPAVLQSSGLYSLSSVVTVPSSSLGTQTYICNVNHKPSNTKVDKRVEPKSCDKTHTCPPCPAPEFEGGPSVFLFPPKPKDTLMISRTPEVTCVVVAVSHEDPEVKFNWYVDGVEVHNAKTKPREEQYNSTYRVVSVLTVLHQDWLNGKEYKCKVSNKALPAPIEKTISKAKGQPREPQVYTLPPSREEMTKNQVSLTCLVKGFYPSDIAVEWESNGQPENNYKTTPPVLDSDGSFFLYSRLTVDKSRWQQGNVFSCSVMHEALHNHYTQKSLSLSPG
light 2: DIVMTQSPKFMSTSVGDRVTVTCKASQNVGTNVAWFQQKPGQSPKVLIYSASYRYSGVPDRFTGSGSGTDFTLTISNVQSEDLAEYFCQQYHTYPLTFGGGTKLEINRTVAAPSVFIFPPSDEQLKSGTASVVCLLNNFYPREAKVQWKVDNALQSGNSQESVTEQDSKDSTYSLSSTLTLSKADYEKHKVYACEVTHQGLSSPVTKSFNRGEC
B7: bsG1-huCD3-FEAL×CD30-T105-FEAR (bispecific antibody, human IgG1, kappa, lambda)
heavy 1: not shown
light 1: not shown
heavy 2: not shown
light 2: DIVMTQSQKFMSTSVGDRVSVTCKASQNVNTNVAWYQQKPGQSPEALIYSASYRYSGVPDRFTGSGSGTDFTLTISNVQSEDLAEYFCQQYNSYPLTFGSGTKLEIKRTVAAPSVFIFPPSDEQLKSGTASVVCLLNNFYPREAKVQWKVDNALQSGNSQESVTEQDSKDSTYSLSSTLTLSKADYEKHKVYACEVTHQGLSSPVTKSFNRGEC
notes: Bispecific IgG1 by Fab-arm exchange of the two parental antibodies; also called bsIgG1-huCD3-FEAL×CD30-T105-FEAR

How the values were obtained:
human CD30 [1] = biological target: T1, human CD30; test: cell-based or functional assay
[2] = biological target: T2, rhesus monkey (Macaca mulatta) CD30; test: flow cytometry on Expi293F cells transfected with rhesus monkey CD30
Protocol: (§1) Cells (3×10⁴ cells/well) were incubated in polystyrene 96-well round-bottom plates (Thermo Scientific, cat. no. 163320) with serial dilutions of antibodies (ranging from 0.0002 to 50 μg/mL in 4-fold dilution steps) in 50 μL staining buffer at 4° C. for 30 min. Experiments were performed in technical duplicate. After washing twice in staining buffer, cells were incubated in 50 μL secondary antibody at 4° C. for 30 min. […] Cells were washed twice in staining buffer, resuspended in 30 μL staining buffer containing 0.4% EDTA and the ToPro-3 viability marker (Invitrogen, cat. no. T3605) diluted 1:10,000. Cells were analyzed on an iQue Screener (Intellicyt Corporation, USA). Binding curves were analyzed using non-linear regression (sigmoidal dose-response with variable slope) using GraphPad Prism V9.0.0 software (GraphPad Software, San Diego, Calif., USA).

human CD30 [3] = biological target: T1, human CD30; test: flow cytometry on Expi293F cells transfected with human CD30
Protocol: as §1

[4] = biological target: T2, rhesus monkey (Macaca mulatta) CD30; test: flow cytometry on Expi293F cells transfected with rhesus monkey CD30

Binder	cytotoxicity IC50 (µg/mL) average, Karpas-299 cells (human CD30 [1])	cytotoxicity maximum lysis (%) average, Karpas-299 cells (human CD30 [1])	binding result [2]	EC50 (read off the curve) (human CD30 [3])	binding result [4]
B1	0.077 µg/mL	42.8%	binds		
B2	0.033 µg/mL	53.7%		~0.1 mg/L	
B3	0.226 µg/mL	41.3%	binds		
B4	0.032 µg/mL	37.8%		~0.06 mg/L	binds
B5			binds		
B6	0.068 µg/mL	47.5%			
B7	0.042 µg/mL	52.6%		~0.2 mg/L	
